Results taken from the supplement of paper PMC10567573.

B1: HESX1 (parent)
chain: ENKPSTCSFSIERILGLDQKKDCV
B2: EFHC1 (parent)
chain: NIYYYLEDDSMSVIEPVVENSGIL

Variants of: B1
Test: protein stability index of a GFP-peptide fusion (GPS, HEK-293T) (PSI 1-6); higher = more stable
Settings: c terminus: a fixed tail appended
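Note: lentivirally expressed fusions sorted by FACS into six bins by GFP to DsRed ratio, PSI derived from sequencing read proportions per bin multiplied by bin number.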

Variant	protein stability index
C23S	3.45
C23Q	3.42
C23K	3.41
C23Y	2.46
C23H	3.33
C23N	3.23
C23M	2.83
C23L	2.7
C23V	3.41
C23R	3.92
C23I	2.91
C23G	3.56
C23T	3.16
C23P	3.29
V24Y	2.74
V24K	4.15
V24G	3.9

Variant	protein stability index
V24M	2.89
V24A	3.81
V24I	3.64
V24W	2.18
V24E	4.25
V24N	3.79
V24P	3.14
V24H	4.64
V24L	3.03
V24F	2.91
V24D	4.18
V24S	2.88
V24C	3.49
V24T	2.83
V24Q	3.81
V24R	3.38

Variants of: B2
Test: as above
Settings: c terminus: a fixed tail appended

Variant	protein stability index
E7A	1.4
E7N	2.72
E7T	2.38
E7L	2.33
E7Y	2.31
E7G	1.65
E7C	2.43
E7R	2.52
E7Q	1.94
E7W	1.41
E7H	1.3
E7M	2.09
E7D	1.89
E7P	1.92
E7I	2.12
E7S	1.46
E7F	1.13
E7K	1.91
Y3R	3.04
Y3I	2.23
Y3V	2.38
Y3A	2.85
Y3K	2.72
Y3P	3.39
Y3S	3.2
Y3E	3.76

Variant	protein stability index
Y3F	2.07
Y3Q	3.12
Y3L	2.15
Y3T	3.64
Y3D	4.08
Y3W	1.82
Y3C	2.9
Y3N	3.38
Y3H	2.81
Y3M	2.17
Y3G	3.43
I2P	3.82
I2N	3.23
I2D	2.62
I2L	2.05
I2S	3.4
I2K	3.44
I2R	3.03
I2Q	3.33
I2A	2.86
I2W	2.35
I2C	2.29
I2Y	2.07
I2T	3.29
I2E	3.79
I2V	2.13

Variant	protein stability index
I2M	2.96
I2F	1.82
I2G	3.21
I2H	2.72
D9W	1.54
D9P	2.02
D9R	2.09
D9T	1.37
D9F	2.08
D9Y	4.3
D9G	2.12
D9E	2.11
D9H	2.13
D9I	1.56
D9Q	2.88
D9N	1.69
D9A	2.09
D9K	1.83
D9L	1.68
D9S	1.68
D9C	1.76
E15F	2.48
E15Q	1.61
E15S	1.7
E15L	2.31
E15C	3.27

Variant	protein stability index
E15A	2.22
E15N	2.79
E15P	2.38
E15G	1.6
E15T	1.42
E15D	1.96
E15Y	1.02
E15K	2.34
E15H	1.75
E15W	2.39
E15I	3.11
E15M	2.85
E15R	1.32
Y4G	3.49
Y4F	1.85
Y4D	2.74
Y4L	1.42
Y4H	2.33
Y4Q	2.39
Y4P	4.01
Y4K	2.66
Y4S	3.48
Y4T	2.91
Y4R	2.51
Y4E	2.78
Y4I	1.49

Variant	protein stability index
Y4M	2.18
Y4N	2.35
Y4V	1.24
Y4A	2.12
Y4C	2.31
Y4W	2.99
I14H	2.45
I14F	1.98
I14A	2.42
I14P	3.08
I14L	1.95
I14N	2.62
I14T	2.1
I14K	3.07
I14S	2.43
I14W	1.86
I14R	2.78
I14G	2.51
I14Y	1.93
I14E	3.1
I14D	3.11
I14V	2.31
I14Q	1.85
I14M	2.09
I14C	2.28
M11H	2.56

Variant	protein stability index
M11S	2.46
M11L	2.07
M11R	2.32
M11Y	2.17
M11V	2.2
M11A	2.75
M11W	1.76
M11D	3.39
M11F	1.7
M11E	2.68
M11I	2.51
M11N	3.06
M11G	2.05
M11Q	2.55
M11T	2.38
M11K	3.24
M11P	3.39
M11C	2.19
P16G	1.92
P16K	2.58
P16F	2.73
P16D	2.2
P16I	2.75
P16M	2.57
P16V	2.86
P16Y	1.42

Variant	protein stability index
P16C	2.54
P16E	2.37
P16N	1.65
P16S	1.83
P16A	2.38
P16T	2.94
P16H	2.45
P16W	2.61
P16R	2.11
P16Q	2.17
N1P	2.15
N1Y	1.81
N1M	2.34
N1S	2.19
N1R	1.32
N1C	1.54
N1A	2.06
N1L	1.92
N1T	1.4
N1Q	2.83
N1E	2.48
N1W	1.61
N1F	2.88
N1G	2.08
N1K	1.09
N1H	1.74

Variant	protein stability index
N1D	1.59
V13Y	1.31
V13E	3.1
V13H	2.24
V13Q	2.35
V13G	2.42
V13S	2.17
V13F	2.16
V13I	2.15
V13D	2.86
V13N	2.82
V13P	2.5
V13T	2.21
V13W	2.11
V13L	2.52
V13A	1.72
V13C	1.85
V13M	2.23
V13K	2.08
V13R	1.81
S12C	1.61
S12E	2.64
S12H	2.53
S12Q	1.92
S12D	3.05
S12Y	1.2

Variant	protein stability index
S12V	1.86
S12P	2.15
S12W	2.16
S12T	1.58
S12G	2.37
S12A	1.98
S12R	1.73
S12F	2.77
S12K	1.85
S12M	1.8
S12N	2.08
S10W	2.02
S10V	1.68
S10R	3.15
S10C	1.71
S10T	1.93
S10Q	2.05
S10G	2.08
S10D	2.36
S10I	2.1
S10K	2.18
S10L	1.14
S10Y	1.9
S10P	2.03
S10E	2.57
S10A	2.02

Variant	protein stability index
S10N	3.24
S10M	2.13
S10H	2.09
S10F	2.3
V17A	2.1
V17I	1.62
V17C	1.85
V17G	1.95
V17H	2.15
V17F	2.88
V17E	3.08
V17D	2.6
D8A	1.94
D8C	2.56
D8Y	2.03
D8H	1.89
D8F	2.17
D8T	1.83
D8G	2.47
D8E	1.94
D8V	3.11
D8R	2.35
D8P	2.23
D8M	2.71
D8Q	1.91
D8K	1.6

Variant	protein stability index
D8N	2.01
D8W	4.45
D8S	2.6
L6N	3.57
L6T	2.71
L6I	2.23
L6H	3.03
L6C	2.24
L6S	2.5
L6K	2.68
L6A	3.01
L6Q	2.84
L6E	2.88
L6W	1.52
L6F	1.72
L6D	3.26
L6M	2.25
L6G	3.65
L6Y	2.22
L6R	2.93
L6P	4.08
L6V	2.23
Y5S	3.23
Y5D	3.64
Y5A	3.1
Y5G	3.27

Variant	protein stability index
Y5N	2.78
Y5Q	2.92
Y5L	2.51
Y5M	2.36
Y5T	2.79
Y5E	3.62
Y5H	2.69
Y5W	1.75
Y5P	3.83
Y5R	3.35
Y5I	1.92
Y5K	3.41
Y5C	2.45
Y5F	1.94
Y5V	2.39
